Publication PMC4330371, “Interaction between the RNA-dependent ATPase and poly(A) polymerase subunits of the TRAMP complex is mediated by short peptides and important for snoRNA processing” (Nucleic Acids Research, 2015)
Entries after “also recorded” stand apart in the source; their conditions may differ. No end group written: not given here.

How the values were obtained:
Type in all cases: cell-based, Saccharomyces cerevisiae
Mtr4 = assay: Yeast two-hybrid interaction with Mtr4; set-up: key to Y2H interaction with Mtr4: +: growth on both SC-ADE and SC-HIS supplemented with 10 mM 3-AT; -: a failure to interact; conditions: for yeast two-hybrid interaction with Mtr4: full-length Mtr4, growth on SC-ADE and SC-HIS; for Y2H interaction with Mtr4: Trf5 fragments, growth on SC-ADE and SC-HIS supplemented with 10 mM 3-AT
From the text: (§1) The yeast two-hybrid assays used plasmids pOBD2 and pOAD that were previously described ([28]). The yeast two-hybrid plasmids for Mtr4 (pAV745), Mtr4-archless (pAV746) and Trf5–53–199 (pAV744) have been previously described as have the positive controls that contain MEC3 and RAD17 ([29]). Yeast two-hybrid plasmids with Trf5 residues 68–199 (pAV759), 83–199 (pAV760), 98–199 (pAV761), 118–199 (pAV766), 53–184 (pAV762), 53–169 (pAV763), 53–154 (pAV764), 53–139 (pAV767) and 53–124 (pAV768) were generated similarly to pAV744. Briefly, these regions of TRF5 were PCR amplified with primers that contain PvuII and PstI sites, digested with those restriction enzymes and cloned into pOAD. The yeast two-hybrid plasmids with Trf5 residues 98–117 were generated by cloning oligonucleotides for this region into the PvuII and PstI sites of pOAD.
(§2) Strain trf4Δ/trf5Δ/pRS416-TRF4 has been previously described (MATa, leu2-Δ0, ura3-Δ0, his3-Δ1, met15-Δ0, trf4Δ::NAT, trf5Δ::KAN; [33]). The TRF5 and trf5-Δ98–117 plasmids were introduced by transformation and selection on media lacking leucine. Transformants were then plated on media containing 5FOA to select for cells that had lost the pRS416-TRF4 plasmid. The rrp44-exo^−, rrp44-endo^− and rrp6Δ::KAN strains are isogenic to this strain and have been previously described ([31]). Yeast two-hybrid strains PJ69–4α and PJ69–4a have been previously described ([28],[34]). They are MATα and MATa, respectively, and in addition are both trp1–901, leu2–3,112, ura3–52, his3–200, gal4Δ, gal80Δ, LYS2::GAL1-HIS3, GAL2-ADE2, met2::GAL7-lacZ.
Yeast two-hybrid assays were carried out as previously described ([29]). Briefly, the MTR4 TRP1 plasmids were transformed into PJ69–4α and the TRF5 LEU2 plasmids were transformed into PJ69–4a. Transformants were crossed to each other and diploids that contain both plasmids were selected on SC-TRP-LEU. These diploids were then serially diluted and spotted on SC-TRP-LEU, SC-ADE and SC-HIS media.

Mtr4-archless = assay: Yeast two-hybrid interaction with Mtr4-archless; conditions: growth on SC-ADE and SC-HIS
From the text: as §1
as §2, with “Yeast two-hybrid strains PJ69–4α and PJ69–4a have been previously described ([28],[34]). They are MATα and MATa, respectively, and in addition are both trp1–901, leu2–3,112, ura3–52, his3–200, gal4Δ, gal80Δ, LYS2::GAL1-HIS3, GAL2-ADE2, met2::GAL7-lacZ.” left out

endogenous Mtr4 = assay: Co-purification of endogenous Mtr4 with TAP-tagged Trf5; conditions: TAP-tagged Trf5 proteins expressed from endogenous promoter, IgG Sepharose, 2 h at 4°C, IP50/IP150 buffer pH 7.5, western blot with anti-Mtr4
From the text: The Trf5-Δ98–117-TAP and Trf5-TAP plasmids are low copy (CEN) plasmids derived from pRS415 ([30]) with the endogenous TRF5 promoter driving expression of Trf5 or Trf5-Δ98–117. The trf5-Δ98–117-TAP plasmid (pAV854) was generated by ligation of three DNA fragments. The first fragment contained the promoter and 5′ end of TRF5 and was generated by PCR with oligonucleotides oAV906 ([…]) and oAV870 ([…]) and digestion with NotI and SpeI. The second fragment contained the 3′ end of TRF5 and was generated by PCR with oligonucleotides oAV871 ([…]) and oAV869 ([…]) and digestion with SpeI and PstI. The third fragment was pAV476 ([31]) digested with NotI and PstI. The TRF5-TAP plasmid (pAV885) was subsequently generated by replacing an XbaI to BstAPI fragment that contained the internal deletion with the corresponding wild-type sequence.
as §2, with “Yeast two-hybrid strains PJ69–4α and PJ69–4a have been previously described ([28],[34]). They are MATα and MATa, respectively, and in addition are both trp1–901, leu2–3,112, ura3–52, his3–200, gal4Δ, gal80Δ, LYS2::GAL1-HIS3, GAL2-ADE2, met2::GAL7-lacZ.” left out

| Molecule | Y2H interaction with Mtr4 (Mtr4) | other results |
| --- | --- | --- |
| Trf5 98–117: yeast two-hybrid construct with Trf5 residues 98–117, conserved 20 amino acid peptide (NNSLEDNQDFIAFSDSSEDE; also: fused to Gal4 activation domain, end not given here) |  | yeast two-hybrid interaction with Mtr4 (Mtr4): interacts with Mtr4; yeast two-hybrid interaction with Mtr4 (Mtr4; listed as amino acids 98–117 of Trf5): sufficient for interaction with Mtr4; also recorded: indeed interacted with Mtr4; yeast two-hybrid interaction with Mtr4-archless (Mtr4-archless): interacts both with full-length and archless Mtr4 |
| Trf5 fragment 98-199: yeast two-hybrid construct of Trf5 residues 98–199 (protein, UniProt P48561 98-199, looked up, fragment, yeast two-hybrid fusion) NNSLEDNQDFIAFSDSSEDETEQIKEDDDERSSFLLTDEHEVSKLTSQQSLNTESACNVEYPWIRNHCHSKQRRIADWLTSEIKDFVHYISPSKNEIKCRNR | + |  |
| Trf5 fragment 53-169: yeast two-hybrid construct of Trf5 residues 53–169 (protein, UniProt P48561 53-169, looked up, fragment, yeast two-hybrid fusion) AIDVEDDDTFGNLVLMENDKSDVDIPVIEEVTSSEDEQRAESSKRNNSLEDNQDFIAFSDSSEDETEQIKEDDDERSSFLLTDEHEVSKLTSQQSLNTESACNVEYPWIRNHCHSKQ | + |  |
| Trf5 fragment 83-199: yeast two-hybrid construct of Trf5 residues 83–199 (protein, UniProt P48561 83-199, looked up, fragment, yeast two-hybrid fusion) VTSSEDEQRAESSKRNNSLEDNQDFIAFSDSSEDETEQIKEDDDERSSFLLTDEHEVSKLTSQQSLNTESACNVEYPWIRNHCHSKQRRIADWLTSEIKDFVHYISPSKNEIKCRNR | + |  |
| Trf5 fragment 53-154: yeast two-hybrid construct of Trf5 residues 53–154 (protein, UniProt P48561 53-154, looked up, fragment, yeast two-hybrid fusion) AIDVEDDDTFGNLVLMENDKSDVDIPVIEEVTSSEDEQRAESSKRNNSLEDNQDFIAFSDSSEDETEQIKEDDDERSSFLLTDEHEVSKLTSQQSLNTESAC | + |  |
| full-length TAP-tagged Trf5: TAP-tagged full-length Trf5 expressed from the endogenous TRF5 promoter (protein, left off: TAP, end not stated, kept, TAP-tagged full-length Trf5 expressed from the endogenous TRF5 promoter) MTRLKAKYSPTKGKRKEDKHTKRMRKSSFTRTQKMLEVFNDNRSHFNKYESLAIDVEDDDTFGNLVLMENDKSDVDIPVIEEVTSSEDEQRAESSKRNNSLEDNQDFIAFSDSSEDETEQIKEDDDERSSFLLTDEHEVSKLTSQQSLNTESACNVEYPWIRNHCHSKQRRIADWLTSEIKDFVHYISPSKNEIKCRNRTIDKLRRAVKELWSDADLHVFGSFATDLYLPGSDIDCVVNSRNRDKEDRNYIYELARHLKNKGLAIRMEVIVKTRVPIIKFIEPQSQLHIDVSFERTNGLEAAKLIREWLRDSPGLRELVLIIKQFLHSRRLNNVHTGGLGGFTVICLVYSFLNMHPRIKSNDIDVLDNLGVLLIDFFELYGKNFGYDDVAISISDGYASYIPKSCWRTLEPSRSKFSLAIQDPGDPNNNISRGSFNMKDIKKAFAGAFELLVNKCWELNSATFKDRVGKSILGNVIKYRGQKRDFNDERDLVQNKAIIENERYHKRRTRIVQEDLFINDTEDLPVEEIYKLDEPAKKKQKAKKDKREGEIKKSAIPSPPPDFGVSRSKLKRKVKKTDQGSLLHQNNLSIDDLMGLSENDQESDQDQKGRDTPSGQDEKSPLETKTVDAQTRRDYWLSKGQAL |  | co-purification of endogenous Mtr4 (words) (endogenous Mtr4): results in co-purification of endogenous Mtr4; co-purification of endogenous Mtr4 (words) (endogenous Mtr4; listed as full-length Trf5): readily detectable |
| Trf5 fragment 53-124: yeast two-hybrid construct of Trf5 residues 53–124 (protein, UniProt P48561 53-124, looked up, fragment, yeast two-hybrid fusion) AIDVEDDDTFGNLVLMENDKSDVDIPVIEEVTSSEDEQRAESSKRNNSLEDNQDFIAFSDSSEDETEQIKED | + |  |
| Trf5 fragment 53-139: yeast two-hybrid construct of Trf5 residues 53–139 (protein, UniProt P48561 53-139, looked up, fragment, yeast two-hybrid fusion) AIDVEDDDTFGNLVLMENDKSDVDIPVIEEVTSSEDEQRAESSKRNNSLEDNQDFIAFSDSSEDETEQIKEDDDERSSFLLTDEHEV | + |  |
| Trf5 fragment 68-199: yeast two-hybrid construct of Trf5 residues 68–199 (protein, UniProt P48561 68-199, looked up, fragment, yeast two-hybrid fusion) MENDKSDVDIPVIEEVTSSEDEQRAESSKRNNSLEDNQDFIAFSDSSEDETEQIKEDDDERSSFLLTDEHEVSKLTSQQSLNTESACNVEYPWIRNHCHSKQRRIADWLTSEIKDFVHYISPSKNEIKCRNR | + |  |
| Trf5 fragment 53-199: yeast two-hybrid construct of Trf5 residues 53–199 (protein, left off: Gal4 activation domain (from the vector pOAD), end not stated, kept) AIDVEDDDTFGNLVLMENDKSDVDIPVIEEVTSSEDEQRAESSKRNNSLEDNQDFIAFSDSSEDETEQIKEDDDERSSFLLTDEHEVSKLTSQQSLNTESACNVEYPWIRNHCHSKQRRIADWLTSEIKDFVHYISPSKNEIKCRNR | + |  |
| Trf5 fragment 53-184: yeast two-hybrid construct of Trf5 residues 53–184 (protein, UniProt P48561 53-184, looked up, fragment, yeast two-hybrid fusion) AIDVEDDDTFGNLVLMENDKSDVDIPVIEEVTSSEDEQRAESSKRNNSLEDNQDFIAFSDSSEDETEQIKEDDDERSSFLLTDEHEVSKLTSQQSLNTESACNVEYPWIRNHCHSKQRRIADWLTSEIKDFV | + |  |
| Trf5 fragment 118-199: yeast two-hybrid construct of Trf5 residues 118–199 (protein, UniProt P48561 118-199, looked up, fragment, yeast two-hybrid fusion) TEQIKEDDDERSSFLLTDEHEVSKLTSQQSLNTESACNVEYPWIRNHCHSKQRRIADWLTSEIKDFVHYISPSKNEIKCRNR | - |  |
